{
  "source": "patent US20140010757A1",
  "about": "(Stanford University, published 2014)",
  "key": {"[1]": {"target": "αvβ3 integrin on cells (U87MG glioblastoma cells; K562-αvβ3 cells) (UniProt P06756)", "assay": "competing off binding of ^125I-echistatin (U87MG cells)"}, "[2]": {"target": "T1, αvβ3 integrin on cells (U87MG glioblastoma cells; K562-αvβ3 cells) (UniProt P06756 31-1048; P05106 27-788)", "T1 construct": "whole, on cells; also called cell surface αvβ3 integrin", "assay": "competition with ^125I-echistatin on U87MG cells"}, "[3]": {"target": "T2, α5β1 integrin (detergent-solubilized) (UniProt P08648 42-1049; P05556 21-798)", "T2 construct": "Coated on microtiter plates; also called integrin α5β1", "assay": "competition with ^125I-echistatin on plate-coated detergent-solubilized integrin"}},
  "note": "No end group written: not given here.",
  "data": [
    {"molecule": "WT (synthesized Agouti peptide)", "values": [
      {"measurement": "IC50", "setting": "[1]", "value": 1400, "unit": "nM"}
    ]},
    {"molecule": "GCVRLHESCLGQQVPCCDPAATCYCYGRGDNDLRCYCR (designed binder, ends and bridges not checked; also: DOTA-64Cu label (site not given here), also called ^64Cu Labeled AgRP loop 4 RDG mutant (peptide 7C); labeled 7C)", "note": "[^64Cu-DOTA-7C AgRP engineered peptide]", "values": [
      {"measurement": "binding result", "setting": "[2]", "value": "binds"}
    ]},
    {"molecule": "QCESGPCCRNCKFLKEGTICKRARGDDMDDYCNGKTCDCPRNPHKGPAT (ligand, ends and bridges not checked; cysteine pairing not given here)", "note": "[echistatin (unlabeled)]", "values": [
      {"measurement": "binding result", "setting": "[3]", "value": "binds"}
    ]}
  ]
}
